Experimental data as given in patent US20190367620A1 (Merck KGaA, published 2019).

Key:
Test in all cases: SPR; free energy change relative to wild-type D2
[1] = molecular target: T1, FGFR1 D2 point mutant A99G (human, UniProt P11362 22-254)
T1 chain: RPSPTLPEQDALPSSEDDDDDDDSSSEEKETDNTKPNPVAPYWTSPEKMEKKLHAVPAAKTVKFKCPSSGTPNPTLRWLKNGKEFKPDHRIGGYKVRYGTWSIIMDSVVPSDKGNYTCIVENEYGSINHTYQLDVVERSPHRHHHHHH
Procedure, shortened: (§1)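 Point mutants of FGFR1 D2, expressed in HEK cells, were tested by SPR against mAb #A08 captured via anti-human Fc to ~200 RU, in HBS-EP+ at 25° C. KD came from a 1:1 Langmuir fit (koff/kon), and ΔΔG was derived from the ratio of wild-type to mutant KD.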

[2] = molecular target: T2, FGFR1 D2 point mutant R97A (human, UniProt P11362 22-254)
T2 chain: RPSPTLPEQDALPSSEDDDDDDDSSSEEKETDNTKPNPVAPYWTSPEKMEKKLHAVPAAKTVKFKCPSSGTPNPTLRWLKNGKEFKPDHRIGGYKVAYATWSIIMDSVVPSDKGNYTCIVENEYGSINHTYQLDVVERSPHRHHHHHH
Procedure, shortened: as §1

[3] = molecular target: T3, FGFR1 D2 point mutant A59G (human, UniProt P11362 22-254)
T3 chain: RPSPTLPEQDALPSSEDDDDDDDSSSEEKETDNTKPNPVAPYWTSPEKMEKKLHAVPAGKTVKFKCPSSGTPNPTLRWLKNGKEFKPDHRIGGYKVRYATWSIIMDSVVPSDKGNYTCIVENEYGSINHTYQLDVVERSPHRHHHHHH
Procedure, shortened: as §1

[4] = molecular target: T4, FGFR1 D2 point mutant K51A (human, UniProt P11362 22-254)
T4 chain: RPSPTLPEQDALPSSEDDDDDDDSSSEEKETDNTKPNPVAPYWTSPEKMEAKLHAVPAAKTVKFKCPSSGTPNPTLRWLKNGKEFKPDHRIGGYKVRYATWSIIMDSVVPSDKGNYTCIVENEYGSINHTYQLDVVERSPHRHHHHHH
Procedure, shortened: as §1

[5] = molecular target: T5, FGFR1 D2 point mutant L53A (human, UniProt P11362 22-254)
T5 chain: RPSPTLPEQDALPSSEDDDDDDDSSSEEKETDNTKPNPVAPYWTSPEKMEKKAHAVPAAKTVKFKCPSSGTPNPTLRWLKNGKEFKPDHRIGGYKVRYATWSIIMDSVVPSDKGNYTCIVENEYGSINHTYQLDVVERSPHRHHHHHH
Procedure, shortened: as §1

[6] = molecular target: T6, FGFR1 D2 point mutant Y94A (human, UniProt P11362 22-254)
T6 construct: Uncharacteristic melting curve
T6 chain: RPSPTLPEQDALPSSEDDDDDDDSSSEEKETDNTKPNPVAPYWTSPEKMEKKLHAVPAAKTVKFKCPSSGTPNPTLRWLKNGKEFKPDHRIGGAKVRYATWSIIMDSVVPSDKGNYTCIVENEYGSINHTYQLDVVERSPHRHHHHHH
Procedure, shortened: as §1

[7] = molecular target: T7, FGFR1 D2 point mutant K52A (human, UniProt P11362 22-254)
T7 chain: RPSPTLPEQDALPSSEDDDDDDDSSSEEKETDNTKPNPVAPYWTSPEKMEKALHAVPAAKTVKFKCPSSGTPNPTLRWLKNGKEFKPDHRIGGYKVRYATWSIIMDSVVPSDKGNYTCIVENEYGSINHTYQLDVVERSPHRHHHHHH
Procedure, shortened: as §1

[8] = molecular target: T8, FGFR1 D2 point mutant G92A (human, UniProt P11362 22-254)
T8 chain: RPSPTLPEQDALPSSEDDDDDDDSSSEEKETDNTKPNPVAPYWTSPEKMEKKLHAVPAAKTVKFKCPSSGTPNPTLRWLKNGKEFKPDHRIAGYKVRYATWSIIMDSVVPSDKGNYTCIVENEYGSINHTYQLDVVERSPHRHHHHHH
Procedure, shortened: as §1

[9] = molecular target: T9, FGFR1 D2 point mutant D106A (human, UniProt P11362 22-254)
T9 chain: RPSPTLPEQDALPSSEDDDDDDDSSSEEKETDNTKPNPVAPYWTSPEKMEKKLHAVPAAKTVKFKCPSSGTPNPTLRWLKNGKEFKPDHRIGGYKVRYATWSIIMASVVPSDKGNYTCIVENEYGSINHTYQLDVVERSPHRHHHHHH
Procedure, shortened: as §1

[10] = molecular target: T10, FGFR1 D2 point mutant K48A (human, UniProt P11362 22-254)
T10 chain: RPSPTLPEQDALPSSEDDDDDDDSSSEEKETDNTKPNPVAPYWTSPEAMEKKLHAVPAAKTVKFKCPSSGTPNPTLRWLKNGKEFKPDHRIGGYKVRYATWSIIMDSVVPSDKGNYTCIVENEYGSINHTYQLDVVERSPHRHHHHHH
Procedure, shortened: as §1

ΔΔGmut [1]: -0.05 kcal/mol | ΔΔGmut [2]: 1.83 kcal/mol | ΔΔGmut [3]: 1.78 kcal/mol | ΔΔGmut [4]: 0.27 kcal/mol | ΔΔGmut [5]: 0.25 kcal/mol | ΔΔGmut [6]: 0.96 kcal/mol | ΔΔGmut [7]: 0.11 kcal/mol | ΔΔGmut [8]: 0.21 kcal/mol | ΔΔGmut [9]: 1.92 kcal/mol | ΔΔGmut [10]: -0.46 kcal/mol
B1: mAb #A08 (antibody, V domains shown)
VH: EVQLQESGPGLVKPSGTLSLTCAVSGGSISSNNWWSWVRQPPGKGLEWIGEIYHSGSTSYNPSLKSRVTISVDKSKNQFSLKLNSVTAADTAVYYCARGTDWFDPWGQGTLVTVSS
VL: QAVLTQPPSVSVAPGQTARITCGGNNIGSESVHWYQQKPGQAPVLVVYDDSDRPSGIPERFSGSNSGNTATLTISRVEAGDEADYYCQVWDSTSDHRVFGGGTKLTVL
notes: Only variable domains are tied to the name mAb #A08 (hit); also called #A08 hit; mAb #08
